# Reference: PMC8263772 (2021)
# B1: dog angiotensin-converting enzyme 2 (dACE2) ectodomain, 6xHis (receptor)
# chain: MQSTEDLVKTFLEKFNYEAEELSYQSSLASWNYNINITDENVQKMNNAGAKWSAFYEEQSKLAKTYPLEEIQDSTVKRQLRALQHSGSSVLSADKNQRLNTILNSMSTIYSTGKACNPSNPQECLLLEPGLDDIMENSKDYNERLWAWEGWRSEVGKQLRPLYEEYVALKNEMARANNYEDYGDYWRGDYEEEWENGYNYSRNQLIDDVEHTFTQIMPLYQHLHAYVRTKLMDTYPSYISPTGCLPAHLLGDMWGRFWTNLYPLTVPFGQKPNIDVTNAMVNQSWDARKIFKEAEKFFVSVGLPNMTQEFWENSMLTEPSDSRKVVCHPTAWDLGKGDFRIKMCTKVTMDDFLTAHHEMGHIQYDMAYAAQPFLLRNGANEGFHEAVGEIMSLSAATPNHLKNIGLLPPSFFEDSETEINFLLKQALTIVGTLPFTYMLEKWRWMVFKGEIPKDQWMKTWWEMKRNIVGVVEPVPHDETYCDPASLFHVANDYSFIRYYTRTIYQFQFQEALCQIAKHEGPLHKCDISNSSEAGQKLLEMLKLGKSKPWTYALEIVVGAKNMDVRPLLNYFEPLFTWLKEQNRNSFVGWNTDWSPYADQSIKVRISLKSALGEKAYEWNNNEMYLFRSSIAYAMRQYFSEVKNQTIPFVEDNVWVSDLKPRISFNFFVTSPGNVSDIIPRTEVEEAIRMYRSRINDVFRLDDNSLEFLGIQPTLGPPYEPPVT
# Biological target: SARS-CoV-2 spike (S) protein receptor binding domain (RBD), wild type (SARS-CoV-2, UniProt P0DTC2)
# Experiment: SPR
binder,measurement,value
B1,koff,0.0139 s⁻¹
